{"source": "patent US20230212554A1", "about": "(published 2023)", "binders": {"B1": {"name": "NP13 (antibody, V domains shown)", "VH": "EVQLVESGGGLVQPGGSLRLSCAASGFTINNYGIHWVRQAPGKGLEWVASIGPYGGSTYYADSVKGRFTISADTSKNTAYLQMNSLRAEDTAVYYCARFGYFNWLDMDYWGQGTLVTVSS", "VL": "DIQMTQSPSSLSASVGDRVTITCRASQDVGYWVAWYQQKPGKAPKLLISSASGLYSGVPSRFSGSGSGTDFTLTISSLQPEDFATYYCQQGWDWPITFGQGTKVEIKR"}, "B2": {"name": "NP4 (antibody, V domains shown)", "VH": "EVQLVESGGGLVQPGGSLRLSCAASGFTISNSSIHWVRQAPGKGLEWVAGIGPSGGYTFYADSVKGRFTISADTSKNTAYLQMNSLRAEDTAVYYCARFHSHNSYYSYSHYGYMDYWGQGTLVTVSS", "VL": "B1 VL with Y31W, W32G, S50G, A51P, G53S, G91Y, W92F, D93N, W94Y"}, "B3": {"name": "NP8 (antibody, V domains shown)", "VH": "EVQLVESGGGLVQPGGSLRLSCAASGFTINSFGIHWVRQAPGKGLEWVAGIGPFGGSTFYADSVKGRFTISADTSKNTAYLQMNSLRAEDTAVYYCARGFYWFDYWGQGTLVTVSS", "VL": "DIQMTQSPSSLSASVGDRVTITCRASQDVDDSVAWYQQKPGKAPKLLIYWTRYLYSGVPSRFSGSGSGTDFTLTISSLQPEDFATYYCQQGYNYPLTFGQGTKVEIKR"}, "B4": {"name": "NP9 (antibody, V domains shown)", "VH": "EVQLVESGGGLVQPGGSLRLSCAASGFTINNGWIHWVRQAPGKGLEWVAGIGPYWGFTSYADSVKGRFMISADTSKNTAYLQMNSLRAEDTAVYYCARFDSDHDHHYSYYYYYDNGYMDYWGQGTLVTVSS", "VL": "B3 VL with D30W, D31F, W50G, R52T, Y53S, G91Y, Y92F"}, "B5": {"name": "NP14 (antibody, V domains shown)", "VH": "EVQLVESGGGLVQPGGSLRLSCAASGFTIDNGGIHWVRQAPGKGLEWVASIWPSWGSTSYADSVKGRFTISADTSKNTAYLQMNSLRAEDTAVYYCARFNFGVFGVMDYWGQGTLVTVSS", "VL": "B3 VL with D31N, S32D, W50G, T51P, Y53G, G91Y, Y92S, N93S, Y94W"}}, "molecular_target": "NPA3 (influenza A virus A/Aalborg/INS132/2009 …, UniProt P68042 1-489)", "assay": "ELISA on recombinant NP", "note": "Residue numbers refer to the chain shown, from its start.", "data": [{"binder": "B1", "values": [{"measurement": "EC50", "result": 9.36, "unit": "nM"}]}, {"binder": "B2", "values": [{"measurement": "EC50", "result": 10.1, "unit": "nM"}]}, {"binder": "B3", "values": [{"measurement": "EC50", "result": 0.07, "unit": "nM"}]}, {"binder": "B4", "values": [{"measurement": "EC50", "result": 4.38, "unit": "nM"}]}, {"binder": "B5", "values": [{"measurement": "EC50", "result": 19.7, "unit": "nM"}]}]}
